# Experimental data from the supplement of paper PMC7877785.
# ± gives the uncertainty stated by the source.
# Test: self-splicing fitness, log relative to wild type (ln ratio); higher = more splicing; Tetrahymena group I intron in knt gene, E. coli kanamycin selection, DiMSum; sequences stand for … in CUCUCU…GGAGGGAAAAGUUAUCAGGCAUGCACCUGGUAGCUAGUCUUUAAACCAAUAGAUUGCAUCGGUUUAAAAGGCAAGACCGUCAAAUUGCGGGAAAGGGGUCAACAGCCGUUCAGUACCAAGUCUCAGGGGAAACUUUGAGAUGGCCUUGCAAAGGGUAUGGUAAUAAGCUGACGGACAUGGUCCUAACCACGCAGCCAAGUCCUAAGUCAACAGAUCUUCUGUUGAUAUGGAUGCAGUUCACAGACUAAAUGUCGGUCGGGGAAGAUGUAUUCUUCUCAUAAGAUAUAGUCGGACCUCUCCUUAAUGGGAGCUAGCGGAUGAAGUGAUGCAACACUGGAGCCGCUGGGAACUAAUUUGUAUGCGAAAGUAUAUUGAUUAGUUUUGGAGUACUCGUGGUCG
# Summary of the method: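 Library with all eight P1ex-region intron nucleotides randomised, intron inside the knt kanamycin-resistance gene on pET-22b(+), in E. coli BL21(DE3). Cells grew overnight at 37°C or 30°C on LB agar with or without 25 μg/mL kanamycin (plus 100 μg/mL carbenicillin, 50 μM IPTG, 0.2% rhamnose), in six replicate transformations. Pooled colonies were amplicon-sequenced on Illumina HiSeq 2500. DiMSum fitness is the error-weighted combination of wild-type-normalised replicate fold changes, kanamycin versus none.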
Sequence,self-splicing fitness (ln) (30 °C),self-splicing fitness (ln) (37 °C)
CUACAGCAAUAUUACGACGG,-0.839 ± 0.063,-0.265 ± 0.095
GAGAAGCAAUAUUACGAUCC,-1.9 ± 0.26,-0.963 ± 0.43
GUGUAGCAAUAUUACGUUCA,-0.405 ± 0.14,-0.597 ± 0.13
UCGCAGCAAUAUUACGCAUG,-3.79 ± 0.33,-2.56 ± 0.27
UCCUAGCAAUAUUACGAGAC,-2.09 ± 0.33,-1.71 ± 0.4
GGCGAGCAAUAUUACGUCAC,-3.01 ± 0.23,
AGUGAGCAAUAUUACGAGGC,-3.83 ± 0.33,-1.45 ± 0.17
GACAAGCAAUAUUACGAUCC,-2.7 ± 0.22,-2.08 ± 0.34
AAGAAGCAAUAUUACGGGCC,-2.42 ± 0.22,-1.52 ± 0.21
AUACAGCAAUAUUACGGCAC,-1.18 ± 0.087,-0.127 ± 0.12
GGCAAGCAAUAUUACGCAAC,-2.24 ± 0.12,-0.823 ± 0.1
CGGCAGCAAUAUUACGAUCC,-2 ± 0.13,-1.03 ± 0.21
AGUCAGCAAUAUUACGCAAC,-1.65 ± 0.18,-1.22 ± 0.21
GACUAGCAAUAUUACGACUU,0.355 ± 0.06,0.58 ± 0.08
CCUCAGCAAUAUUACGAUUC,-3.88 ± 0.43,-2.44 ± 0.49
CUCGAGCAAUAUUACGGGGA,-2.71 ± 0.2,-1.17 ± 0.18
GGGUAGCAAUAUUACGAUGA,-0.862 ± 0.13,-0.927 ± 0.14
UCAGAGCAAUAUUACGCUUC,-1.74 ± 0.24,-2.73 ± 0.48
UAUGAGCAAUAUUACGGGAC,,-1.11 ± 0.17
CACGAGCAAUAUUACGGACA,-3.03 ± 0.22,-2.9 ± 0.22
CGCCAGCAAUAUUACGACGU,-1.71 ± 0.076,-1.5 ± 0.094
GACAAGCAAUAUUACGUUUC,-4.22 ± 0.19,-2.25 ± 0.16
UGUUAGCAAUAUUACGGGCA,-0.664 ± 0.16,0.194 ± 0.18
AAGCAGCAAUAUUACGCCGA,-1.64 ± 0.3,-1.61 ± 0.26
AUUCAGCAAUAUUACGUGGA,-2.72 ± 0.18,-1.79 ± 0.12

Sequence,self-splicing fitness (ln) (30 °C),self-splicing fitness (ln) (37 °C)
CCUCAGCAAUAUUACGCUAG,-4.45 ± 0.38,-1.04 ± 0.22
ACGCAGCAAUAUUACGUAAG,-0.0743 ± 0.099,-1.27 ± 0.13
CGUGAGCAAUAUUACGUUGA,-2.89 ± 0.3,-2.94 ± 0.43
GCCUAGCAAUAUUACGAAGU,-0.618 ± 0.1,-0.808 ± 0.12
UACAAGCAAUAUUACGGCUG,-0.22 ± 0.1,0.307 ± 0.16
UGCCAGCAAUAUUACGAUAG,-2.17 ± 0.12,-1.09 ± 0.12
AGAGAGCAAUAUUACGAGGU,-2.98 ± 0.2,-1.87 ± 0.32
GCCUAGCAAUAUUACGAUGC,-1.01 ± 0.081,0.0478 ± 0.13
UUGUAGCAAUAUUACGGGAC,-0.759 ± 0.16,-2.7 ± 0.36
GCCGAGCAAUAUUACGGUUA,-0.775 ± 0.071,-0.0707 ± 0.07
GCGCAGCAAUAUUACGCUCC,-0.982 ± 0.34,-1.01 ± 0.45
GCAAAGCAAUAUUACGACUA,-0.955 ± 0.05,-0.475 ± 0.055
CGAAAGCAAUAUUACGGACA,-0.806 ± 0.074,0.186 ± 0.091
GGAAAGCAAUAUUACGUCGU,-0.732 ± 0.093,-0.254 ± 0.12
GAGUAGCAAUAUUACGAAGU,-2.93 ± 0.18,-2.1 ± 0.15
GCCGAGCAAUAUUACGAUAU,-2.51 ± 0.12,-1.46 ± 0.11
CUGAAGCAAUAUUACGGGCG,0.0611 ± 0.06,-0.103 ± 0.074
GCGGAGCAAUAUUACGUCUU,-2.3 ± 0.22,-0.899 ± 0.22
AUGUAGCAAUAUUACGUUCA,-0.72 ± 0.075,-0.276 ± 0.089
CCAGAGCAAUAUUACGGGAA,,0.0973 ± 0.28
UGUGAGCAAUAUUACGAAAC,,-1.59 ± 0.35
GAAUAGCAAUAUUACGAGUC,-3.29 ± 0.15,-1.4 ± 0.11
CUGCAGCAAUAUUACGUUAG,-2.97 ± 0.1,-1.19 ± 0.1
GAGAAGCAAUAUUACGGGCG,-1.52 ± 0.14,-0.609 ± 0.13
